Biological target: recombinant human Pol δ core+p68 trimer (p125/p50/p68) (human) (UniProt P28340)
Sequence (P28340 whole entry, stated change not applied, chain 1 of 3): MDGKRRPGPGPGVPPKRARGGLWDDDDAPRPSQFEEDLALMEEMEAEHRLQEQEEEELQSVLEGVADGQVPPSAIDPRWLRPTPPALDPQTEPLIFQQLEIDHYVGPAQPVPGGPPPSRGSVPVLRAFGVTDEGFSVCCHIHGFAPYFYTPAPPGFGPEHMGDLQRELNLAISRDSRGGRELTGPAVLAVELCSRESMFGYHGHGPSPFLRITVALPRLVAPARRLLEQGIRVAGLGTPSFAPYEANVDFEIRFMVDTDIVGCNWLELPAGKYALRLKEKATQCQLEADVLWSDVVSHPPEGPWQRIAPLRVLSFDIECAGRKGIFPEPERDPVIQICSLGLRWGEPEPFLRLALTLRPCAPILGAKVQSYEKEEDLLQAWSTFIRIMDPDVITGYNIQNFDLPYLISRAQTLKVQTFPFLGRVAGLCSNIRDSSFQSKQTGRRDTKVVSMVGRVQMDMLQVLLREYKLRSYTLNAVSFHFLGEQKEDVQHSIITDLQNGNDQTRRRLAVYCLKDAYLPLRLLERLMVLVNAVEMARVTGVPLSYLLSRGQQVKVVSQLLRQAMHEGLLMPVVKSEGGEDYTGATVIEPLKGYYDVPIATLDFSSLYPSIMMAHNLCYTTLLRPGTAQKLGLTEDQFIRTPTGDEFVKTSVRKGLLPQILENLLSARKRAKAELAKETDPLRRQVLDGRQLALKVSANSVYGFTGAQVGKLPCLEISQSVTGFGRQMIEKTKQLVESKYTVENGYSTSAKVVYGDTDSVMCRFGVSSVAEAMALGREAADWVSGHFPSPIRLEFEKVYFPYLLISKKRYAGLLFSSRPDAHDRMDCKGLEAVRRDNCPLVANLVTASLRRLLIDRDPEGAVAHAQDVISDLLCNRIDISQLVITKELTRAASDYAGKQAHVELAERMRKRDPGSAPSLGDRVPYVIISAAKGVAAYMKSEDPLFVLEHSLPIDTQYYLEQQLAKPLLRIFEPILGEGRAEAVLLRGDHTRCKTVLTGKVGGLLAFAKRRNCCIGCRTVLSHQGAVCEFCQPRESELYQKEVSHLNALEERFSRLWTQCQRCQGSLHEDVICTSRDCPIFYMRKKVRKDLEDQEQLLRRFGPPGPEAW
Sequence (P49005 whole entry, stated change not applied, chain 2 of 3, further chain): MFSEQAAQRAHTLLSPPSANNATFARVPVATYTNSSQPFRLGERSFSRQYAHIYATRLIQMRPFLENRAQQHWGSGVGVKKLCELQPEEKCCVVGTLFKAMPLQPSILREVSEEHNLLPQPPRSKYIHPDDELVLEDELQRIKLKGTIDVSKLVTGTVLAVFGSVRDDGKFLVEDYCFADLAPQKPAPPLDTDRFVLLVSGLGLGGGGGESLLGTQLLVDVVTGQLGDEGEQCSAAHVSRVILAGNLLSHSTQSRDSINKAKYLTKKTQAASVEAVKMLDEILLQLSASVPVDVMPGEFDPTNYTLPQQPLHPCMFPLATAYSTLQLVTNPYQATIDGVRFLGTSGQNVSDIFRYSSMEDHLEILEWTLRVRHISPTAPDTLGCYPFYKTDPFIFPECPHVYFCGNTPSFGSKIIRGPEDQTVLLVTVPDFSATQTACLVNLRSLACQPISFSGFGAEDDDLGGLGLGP
Sequence (Q15054 whole entry, stated change not applied, chain 3 of 3, further chain): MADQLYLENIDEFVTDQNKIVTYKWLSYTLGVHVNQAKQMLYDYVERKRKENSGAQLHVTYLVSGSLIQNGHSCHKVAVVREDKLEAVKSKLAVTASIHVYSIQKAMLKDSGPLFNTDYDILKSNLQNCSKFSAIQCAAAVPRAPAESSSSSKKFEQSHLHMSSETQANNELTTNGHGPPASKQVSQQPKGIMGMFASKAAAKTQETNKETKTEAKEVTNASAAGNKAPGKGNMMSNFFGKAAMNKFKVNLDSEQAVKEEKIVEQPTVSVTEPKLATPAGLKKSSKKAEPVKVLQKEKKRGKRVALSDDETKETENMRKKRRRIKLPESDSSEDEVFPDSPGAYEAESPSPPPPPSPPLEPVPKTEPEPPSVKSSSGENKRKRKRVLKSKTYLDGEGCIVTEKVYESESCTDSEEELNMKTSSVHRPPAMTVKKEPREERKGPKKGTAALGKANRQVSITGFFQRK

restoration of Pol δ activity on poly(dA)/oligo(dT) with PCNA, core+p68 (200 fmoles) pre-incubated with 0-400 ng p12 at 4°C for 30 min, against Pol δ4: 80%
restoration of Pol δ activity on singly primed M13 DNA, core+p68 (50 fmoles) pre-incubated with 0-400 ng p12, against Pol δ4: 96%
B1: non-tagged recombinant p12 (natural protein)
chain: MGRKRLITDSYPVVKRREGPAGHSKGELAPELGEEPQPRDEEEAELELLRQFDLAWQYGPCTGITRLQRWCRAKQMGLEPPPEVWQVLKTHPGDPRFQCSLWHLYPL
